Results from paper PMC6278910, “Reduced structural flexibility for an exonuclease deficient DNA polymerase III mutant†”.

Assays:
[1] = molecular target: T1, Pol III alpha (clamp-binding enhanced; called wild type);Pol III epsilon exonuclease (clamp-binding … (Escherichia coli;Escherichia …, UniProt P10443;P03007;P0ABS8;P0A988 1-1160;1-243;1-76;1-366, A921L;M923L|T183L;M185L;A186P;F187L|E41C|); experiment: smFRET; dCTP, Mg2+; kon,fast 0.8±0.1, kon,slow 0.030±0.010, koff 0.20±0.01 s-1 (25 nM enzyme); 20 mM Hepes pH 7.6, 5 mM potassium glutamate, 3 mM magnesium acetate, 2 mM DTT, 2 mM Trolox, 25 nM enzyme, 10 uM dCTP; temperature not stated. PIFE with unlabeled Pol III alpha or alpha-epsilon at 25 nM showed no binding (DNA not specified, not listed); conditions: protein: recombinant;recombinant;recombinant;recombinant, (HisTrap purification), Cy5 maleimide at C41;, copies: 1;1;1;2, label: 5' biotin-TEG and Cy3 (amino dT-C6) on template, 7 nt upstream from primer 3' terminus, 5' overhang 14 nt on template, matched G:ddC terminus
[2] = molecular target: T2, Pol III alpha Y453A (clamp-binding enhanced);Pol III epsilon exonuclease (clamp-binding enhanced);Pol III … (Escherichia coli;Escherichia …, UniProt P10443;P03007;P0ABS8;P0A988 1-1160;1-243;1-76;1-366, Y453A;A921L;M923L|T183L;M185L;A186P;F187L|E41C|); experiment: smFRET; dCTP, Mg2+; kon,fast 0.7±0.1, kon,slow 0.05±0.01, koff 0.40±0.02 s-1; 20 mM Hepes pH 7.6, 5 mM potassium glutamate, 3 mM magnesium acetate, 2 mM DTT, 2 mM Trolox, 25 nM enzyme, 10 uM dCTP; temperature not stated. PIFE with unlabeled Pol III alpha or alpha-epsilon at 25 nM showed no binding (DNA not specified, not listed); conditions: protein: recombinant;recombinant;recombinant;recombinant, (HisTrap purification), Cy5 maleimide at C41;, copies: 1;1;1;2, label: 5' biotin-TEG and Cy3 (amino dT-C6) on template, 7 nt upstream from primer 3' terminus, 5' overhang 14 nt on template, matched G:ddC terminus
[3] = molecular target: T1, Pol III alpha (clamp-binding enhanced; …); experiment: smFRET; non-hydrolyzable dCTP analog, Mg2+; kon,fast 0.6±0.1, kon,slow 0.020±0.007, koff 0.20±0.01 s-1; 20 mM Hepes pH 7.6, 5 mM potassium glutamate, 3 mM magnesium acetate, 2 mM DTT, 2 mM Trolox, 25 nM enzyme, 10 uM dCTP; temperature not stated. PIFE with unlabeled Pol III alpha or alpha-epsilon at 25 nM showed no binding (DNA not specified, not listed); conditions: protein: recombinant;recombinant;recombinant;recombinant, (HisTrap purification), Cy5 maleimide at C41;, copies: 1;1;1;2, label: 5' biotin-TEG and Cy3 (amino dT-C6) on template, 7 nt upstream from primer 3' terminus, 5' overhang 14 nt on template, matched G:C terminus
[4] = molecular target: T2, Pol III alpha Y453A (clamp-binding …); experiment: smFRET; non-hydrolyzable dCTP analog (stated for wild type), Mg2+; kon,fast 0.8±0.1, kon,slow 0.04±0.01, koff 0.30±0.01 s-1; 20 mM Hepes pH 7.6, 5 mM potassium glutamate, 3 mM magnesium acetate, 2 mM DTT, 2 mM Trolox, 25 nM enzyme, 10 uM dCTP; temperature not stated. PIFE with unlabeled Pol III alpha or alpha-epsilon at 25 nM showed no binding (DNA not specified, not listed); conditions: protein: recombinant;recombinant;recombinant;recombinant, (HisTrap purification), Cy5 maleimide at C41;, copies: 1;1;1;2, label: 5' biotin-TEG and Cy3 (amino dT-C6) on template, 7 nt upstream from primer 3' terminus, 5' overhang 14 nt on template, matched G:C terminus
[5] = molecular target: T2, Pol III alpha Y453A (clamp-binding …); experiment: smFRET; dCTP, Mg2+; kon N.D., koff 0.30±0.02 s-1; 20 mM Hepes pH 7.6, 5 mM potassium glutamate, 3 mM magnesium acetate, 2 mM DTT, 2 mM Trolox, 25 nM enzyme, 10 uM dCTP; temperature not stated. PIFE with unlabeled Pol III alpha or alpha-epsilon at 25 nM showed no binding (DNA not specified, not listed); conditions: protein: recombinant;recombinant;recombinant;recombinant, (HisTrap purification), Cy5 maleimide at C41;, copies: 1;1;1;2, label: 5' biotin-TEG and Cy3 (amino dT-C6) on template, 7 nt upstream from primer 3' terminus, 5' overhang 14 nt on template, terminal double mismatch
[6] = molecular target: T1, Pol III alpha (clamp-binding enhanced; …); experiment: as above; conditions: protein: recombinant;recombinant;recombinant;recombinant, (HisTrap purification), Cy5 maleimide at C41;, copies: 1;1;1;2, label: 5' biotin-TEG and Cy3 (amino dT-C6) on template, 7 nt upstream from primer 3' terminus, 5' overhang 14 nt on template, terminal double mismatch
[7] = molecular target: T2, Pol III alpha Y453A (clamp-binding …); experiment: smFRET; dCTP, Mg2+; kon,fast 0.6±0.1, kon,slow 0.05±0.01, koff 0.30±0.01 s-1; 20 mM Hepes pH 7.6, 5 mM potassium glutamate, 3 mM magnesium acetate, 2 mM DTT, 2 mM Trolox, 25 nM enzyme, 10 uM dCTP; temperature not stated. PIFE with unlabeled Pol III alpha or alpha-epsilon at 25 nM showed no binding (DNA not specified, not listed); conditions: protein: recombinant;recombinant;recombinant;recombinant, (HisTrap purification), Cy5 maleimide at C41;, copies: 1;1;1;2, label: 5' biotin-TEG and Cy3 (amino dT-C6) on template, 7 nt upstream from primer 3' terminus, 5' overhang 14 nt on template, terminal G:T mismatch
[8] = molecular target: T1, Pol III alpha (clamp-binding enhanced; …); experiment: smFRET; dCTP, Mg2+; kon,fast 0.6±0.1, kon,slow 0.010±0.003, koff 0.20±0.01 s-1; 20 mM Hepes pH 7.6, 5 mM potassium glutamate, 3 mM magnesium acetate, 2 mM DTT, 2 mM Trolox, 25 nM enzyme, 10 uM dCTP; temperature not stated. PIFE with unlabeled Pol III alpha or alpha-epsilon at 25 nM showed no binding (DNA not specified, not listed); conditions: protein: recombinant;recombinant;recombinant;recombinant, (HisTrap purification), Cy5 maleimide at C41;, copies: 1;1;1;2, label: 5' biotin-TEG and Cy3 (amino dT-C6) on template, 7 nt upstream from primer 3' terminus, 5' overhang 14 nt on template, terminal G:T mismatch
[9] = molecular target: T2, Pol III alpha Y453A (clamp-binding …); experiment: smFRET; dCTP, Mg2+; kon,fast 1.5±0.3, kon,slow 0.04±0.01, koff 0.30±0.02 s-1; 20 mM Hepes pH 7.6, 5 mM potassium glutamate, 3 mM magnesium acetate, 2 mM DTT, 2 mM Trolox, 25 nM enzyme, 10 uM dCTP; temperature not stated. PIFE with unlabeled Pol III alpha or alpha-epsilon at 25 nM showed no binding (DNA not specified, not listed); conditions: protein: recombinant;recombinant;recombinant;recombinant, (HisTrap purification), Cy5 maleimide at C41;, copies: 1;1;1;2, label: 5' biotin-TEG and Cy3 (amino dT-C6) on template, 7 nt upstream from primer 3' terminus, 5' overhang 14 nt on template, terminal G:A mismatch
[10] = molecular target: T1, Pol III alpha (clamp-binding enhanced; …); experiment: smFRET; dCTP, Mg2+; kon,fast 0.3±0.1, kon,slow 0.020±0.002, koff 0.20±0.01 s-1; 20 mM Hepes pH 7.6, 5 mM potassium glutamate, 3 mM magnesium acetate, 2 mM DTT, 2 mM Trolox, 25 nM enzyme, 10 uM dCTP; temperature not stated. PIFE with unlabeled Pol III alpha or alpha-epsilon at 25 nM showed no binding (DNA not specified, not listed); conditions: protein: recombinant;recombinant;recombinant;recombinant, (HisTrap purification), Cy5 maleimide at C41;, copies: 1;1;1;2, label: 5' biotin-TEG and Cy3 (amino dT-C6) on template, 7 nt upstream from primer 3' terminus, 5' overhang 14 nt on template, terminal G:A mismatch

B1: G:ddC (dsDNA)
DNA 1: CATAATATCCTCAGGAGTCCTTCGTCCTAGTACTACTCA
DNA 2: TGAGTAGTACTAGGACGAAGGACTC
modifications: 3' dideoxycytosine on primer
binding result [1]: binds | binding result [2]: binds

B2: G:C (dsDNA)
DNA 1: B1 DNA 1
DNA 2: TGAGTAGTACTAGGACGAAGGACTC
binding result [3]: binds | binding result [4]: binds

B3: G:AA (dsDNA)
DNA 1: B1 DNA 1
DNA 2: TGAGTAGTACTAGGACGAAGGACAA
modifications: phosphorothioate not stated for this DNA
binding result [5]: binds | binding result [6]: binds

B4: G:T (dsDNA)
DNA 1: B1 DNA 1
DNA 2: TGAGTAGTACTAGGACGAAGGACTT
modifications: phosphorothioate in primer (position not given)
binding result [7]: binds | binding result [8]: binds

B5: G:A (dsDNA)
DNA 1: B1 DNA 1
DNA 2: TGAGTAGTACTAGGACGAAGGACTA
modifications: phosphorothioate in primer (position not given)
binding result [9]: binds | binding result [10]: binds
